Here are results for two molecules from PMC5703999, “The E. coli dicarboxylic acid transporters DauA act as a signal transducer by interacting with the DctA uptake system” (Scientific Reports, 2017).

Bounds are passed on as bounds.

The target in assay [1] is T1, DctA fused to the T18 or T25 domain of adenylate cyclase (E. coli, UniProt P0A830 1-428).
T1 construct: Aerobic C4-dicarboxylate transport protein DctA, E. coli; also called DctA-T25; DctA-T18; source: bacterial two-hybrid fusion (pUT18 or pKNT25), in E. coli BTH101 (cyaA-); not shown: T18 or T25 domain of Bordetella pertussis adenylate cyclase CyaA, C-terminal, kept
T1 sequence (looked up): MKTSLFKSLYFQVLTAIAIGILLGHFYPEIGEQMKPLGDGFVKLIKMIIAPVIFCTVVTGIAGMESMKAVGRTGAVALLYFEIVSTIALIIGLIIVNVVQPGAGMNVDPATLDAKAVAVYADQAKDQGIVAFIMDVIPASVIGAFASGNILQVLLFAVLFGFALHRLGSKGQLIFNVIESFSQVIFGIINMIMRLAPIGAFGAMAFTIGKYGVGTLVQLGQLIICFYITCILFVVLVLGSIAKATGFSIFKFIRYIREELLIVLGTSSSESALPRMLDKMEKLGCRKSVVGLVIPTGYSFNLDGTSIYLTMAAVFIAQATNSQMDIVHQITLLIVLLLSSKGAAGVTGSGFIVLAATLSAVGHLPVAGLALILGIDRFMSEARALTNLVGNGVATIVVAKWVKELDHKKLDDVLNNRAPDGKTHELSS
The experiment in a line: two-hybrid; bacterial two-hybrid (BTH): T18 and T25 fusions co-transformed in E. coli BTH101 (cyaA-), grown overnight in LB at 30 °C; beta-galactosidase activity; background below 150 Miller units; the reporter strain expresses chromosomal DctA and DcuS. As to conditions: partners not purified.

Assay [2] has as its target T2, DauA fused to the T18 or T25 domain of adenylate cyclase (E. coli, UniProt P0AFR2 1-559).
T2 construct: C4-dicarboxylic acid transporter DauA (previously YchM), E. coli; Stood with T18 and with T25 in reciprocal pairings; one molecule for both; also called DauA-T18; DauA-T25; source: bacterial two-hybrid fusion (pUT18 or pKNT25), in E. coli BTH101 (cyaA-); not shown: T18 or T25 domain of Bordetella pertussis adenylate cyclase CyaA, C-terminal, kept
T2 sequence (looked up): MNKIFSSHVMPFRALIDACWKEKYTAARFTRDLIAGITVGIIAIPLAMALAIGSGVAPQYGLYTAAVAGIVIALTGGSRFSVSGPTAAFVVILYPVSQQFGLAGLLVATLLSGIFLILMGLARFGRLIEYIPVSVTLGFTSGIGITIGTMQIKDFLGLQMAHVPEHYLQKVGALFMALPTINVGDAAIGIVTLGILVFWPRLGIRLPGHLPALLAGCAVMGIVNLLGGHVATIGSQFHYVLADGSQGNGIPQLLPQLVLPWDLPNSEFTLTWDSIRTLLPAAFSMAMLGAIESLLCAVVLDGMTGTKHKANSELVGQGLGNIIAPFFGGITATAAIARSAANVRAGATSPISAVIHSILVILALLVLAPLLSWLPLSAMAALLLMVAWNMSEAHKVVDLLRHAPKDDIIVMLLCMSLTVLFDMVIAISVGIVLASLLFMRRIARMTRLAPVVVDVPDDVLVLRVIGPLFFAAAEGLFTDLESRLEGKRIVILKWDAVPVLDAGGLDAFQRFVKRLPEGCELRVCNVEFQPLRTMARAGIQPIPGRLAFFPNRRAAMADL
Described as above. The note with it: partners not purified.

B1: DcuS fused to the T18 or T25 domain of adenylate cyclase (natural protein, E. coli, UniProt P0AEC8 1-543, looked up)
chain: MRHSLPYRMLRKRPMKLSTTVILMVSAVLFSVLLVVHLIYFSQISDMTRDGLANKALAVARTLADSPEIRQGLQKKPQESGIQAIAEAVRKRNDLLFIVVTDMQSLRYSHPEAQRIGQPFKGDDILKALNGEENVAINRGFLAQALRVFTPIYDENHKQIGVVAIGLELSRVTQQINDSRWSIIWSVLFGMLVGLIGTCILVKVLKKILFGLEPYEISTLFEQRQAMLQSIKEGVVAVDDRGEVTLINDAAQELLNYRKSQDDEKLSTLSHSWSQVVDVSEVLRDGTPRRDEEITIKDRLLLINTVPVRSNGVIIGAISTFRDKTEVRKLMQRLDGLVNYADALRERSHEFMNKLHVILGLLHLKSYKQLEDYILKTANNYQEEIGSLLGKIKSPVIAGFLISKINRATDLGHTLILNSESQLPDSGSEDQVATLITTLGNLIENALEALGPEPGGEISVTLHYRHGWLHCEVNDDGPGIAPDKIDHIFDKGVSTKGSERGVGLALVKQQVENLGGSIAVESEPGIFTQFFVQIPWDGERSNR
notes: Membrane embedded sensor histidine kinase DcuS, E. coli; also called DcuS-T18; DcuS-T25; source: bacterial two-hybrid fusion (pUT18 or pKNT25), in E. coli BTH101 (cyaA-); not shown: T18 or T25 domain of Bordetella pertussis adenylate cyclase CyaA, C-terminal, kept
The molecule B1 returned a beta-galactosidase activity in assay [1] of 252 Miller units.

B2: AmtB (ammonium transporter), two-hybrid fusion (natural protein, UniProt P69681 1-428, looked up)
chain: MKIATIKTGLASLAMLPGLVMAAPAVADKADNAFMMICTALVLFMTIPGIALFYGGLIRGKNVLSMLTQVTVTFALVCILWVVYGYSLAFGEGNNFFGNINWLMLKNIELTAVMGSIYQYIHVAFQGSFACITVGLIVGALAERIRFSAVLIFVVVWLTLSYIPIAHMVWGGGLLASHGALDFAGGTVVHINAAIAGLVGAYLIGKRVGFGKEAFKPHNLPMVFTGTAILYIGWFGFNAGSAGTANEIAALAFVNTVVATAAAILGWIFGEWALRGKPSLLGACSGAIAGLVGVTPACGYIGVGGALIIGVVAGLAGLWGVTMLKRLLRVDDPCDVFGVHGVCGIVGCIMTGIFAASSLGGVGFAEGVTMGHQLLVQLESIAITIVWSGVVAFIGYKLADLTVGLRVPEEQEREGLDVNSHGENAYNA
notes: Ammonium transporter AmtB; source: bacterial two-hybrid fusion, in E. coli BTH101 (cyaA-)
In assay [2], B2 gave a beta-galactosidase activity below 150 Miller units.
